The chains are these.
B1: Metastasis-associated protein MTA3, residues 265 to 317; numbered along this chain, Q9BTC8 (parent)
chain: RDEMEEWSASEASLFEEALEKYGKDFNDIRQDFLPWKSLTSIIEYYYMWKTTD

± gives the uncertainty stated by the source.

In the data set the parent is B1. Description: abundance fitness (aPCA) (normalised: wild type 0, dead -1); higher = more abundant; growth selection in yeast, the domain comes from the species named. Particulars: Homo sapiens.
On to RDEMEEWSASEASLFEEALEPYGKDFNDIRQDFLPWKSLTSIIEYYYMWKTTD, for which the abundance fitness is -0.804 ± 0.1.
To RDEMEEWSASEASLFEEALERYGKDFNDIRQDFLPWKSLTSIIEYYYMWKTTD belongs -0.381 ± 0.11; to RDEMEEWSASEASLFEEALEEYGKDFNDIRQDFLPWKSLTSIIEYYYMWKTTD, -0.867 ± 0.29; to REEMEEWSASEASLFEEALEKYGKDFNDIRQDFLPWKSLTSIIEYYYMWKTTD, 0.199 ± 0.076.
RDKMEEWSASEASLFEEALEKYGKDFNDIRQDFLPWKSLTSIIEYYYMWKTTD: the abundance fitness is 0.566 ± 0.19.
For the variant RDEMEEWSASEASLFEIALEKYGKDFNDIRQDFLPWKSLTSIIEYYYMWKTTD, the abundance fitness was -0.591 ± 0.2.
To RDEMEEWSASEASLFERALEKYGKDFNDIRQDFLPWKSLTSIIEYYYMWKTTD belongs -0.304 ± 0.075; to RDEMEEWSASEASLFEEALEKYGKDFNDIRQDFLPWKSLTSIIEYYYMWKHTD, -0.235 ± 0.1; to RDEMEEWSASEASLFEEALEKYGKDFNDIRQDFLPWKSLTSIIEYYYMWKWTD, -0.853 ± 0.17.
For the variant RDEMEEWSASERSLFEEALEKYGKDFNDIRQDFLPWKSLTSIIEYYYMWKTTD, the abundance fitness turned out to be 0.22 ± 0.067.
To RDEMEEWSALEASLFEEALEKYGKDFNDIRQDFLPWKSLTSIIEYYYMWKTTD belongs -0.038 ± 0.063.
To RDEMEEWSAREASLFEEALEKYGKDFNDIRQDFLPWKSLTSIIEYYYMWKTTD belongs -0.156 ± 0.072; to RDEMEEWSAHEASLFEEALEKYGKDFNDIRQDFLPWKSLTSIIEYYYMWKTTD, -0.139 ± 0.13.
To RDEMEEWSASEASLFCEALEKYGKDFNDIRQDFLPWKSLTSIIEYYYMWKTTD belongs -0.725 ± 0.24; to RDEMEEWSASEASLFQEALEKYGKDFNDIRQDFLPWKSLTSIIEYYYMWKTTD, 0.023 ± 0.08; to RDEMEEWSASEASLFWEALEKYGKDFNDIRQDFLPWKSLTSIIEYYYMWKTTD, -0.504 ± 0.14.
Turning to RDEMEEWSASEASLFEEALEKYGKDFNDIRQDFLPWKSLTSIIEYYYEWKTTD, the abundance fitness was -0.207 ± 0.28.
Regarding RDEMEEWSASEASLFEEALEKYGKDFNDIRQDFLPWKSLTSIIEYYYSWKTTD, the abundance fitness was -0.04 ± 0.14.
To RDEMEEWSASEASLFEEALEKYGKDFNDIRQDFLPWKSLTSIIEYYYVWKTTD belongs -0.212 ± 0.084.
To RDEMEEWSASEASLFEEALEKYGKDFNDIRQDFLPWKSLTSIIEYYYMTKTTD belongs 0.248 ± 0.073; to RDEMEEWSASEASLFEEALEKYGKDFNDIRQDFLPWKSLTSIIEYYYMWVTTD, 0.311 ± 0.11.
To RDEMEEWSASEASLFEEALEKYGKDFNDIRQDFLPWKSLTSIIEYYYMWATTD belongs -0.42 ± 0.083.
With RDEMEEWSASEASLFEEALEKYGKDFNDIRQDFLPWKSLTSIIEYYYMWHTTD, the abundance fitness was -0.127 ± 0.1.
To RDEMEEWSASEASLFEEALEKYGKDFNDIRQDFLPWKSLTSIIEYYYMWSTTD belongs -0.2 ± 0.074.
Regarding RDEMEEWSASEASLFEEALEKYGKDFNDIRQDFLPWKSLTSIIEYYYMWETTD, the abundance fitness was -0.278 ± 0.092.
To RDEMEEWSASEASLFEEALEKYGKDFNDIRQDFLPWKSLTSIIEYYYMWWTTD belongs -0.882 ± 0.26; to RDEMEEWSASEASLFEEALEKYGKDFNDIRQDFLPWKSLTSIIEYEYMWKTTD, -0.531 ± 0.12.
To RDEMEEWSASEASLFEEALEKYGKDFNDIRQDFLPWKSLTSIIEYNYMWKTTD belongs -0.907 ± 0.31; to RDEMEEWSASEASLFEEALEKYGKDFNQIRQDFLPWKSLTSIIEYYYMWKTTD, 1.19 ± 0.16; to RDEMEEWSASEASLFEEALEKYGKDFNWIRQDFLPWKSLTSIIEYYYMWKTTD, 0.035 ± 0.11.
To RDEMEEWSASEASLFEEALEKYGKDFNCIRQDFLPWKSLTSIIEYYYMWKTTD belongs 0.882 ± 0.17; to RDEMEEWSASEASLFEEALEKYGKDFNDIRQDFLPWKSLTSIIEYYYMWKTTV, -0.336 ± 0.092.
Consider RDEMEEWSASEASLFEEALEKYGKDFNDIRQDFLPWKSLTSIIEYYYMWKTTN, for which the abundance fitness worked out at 0.211 ± 0.3.
To RDEMEEWSASEASLFEEALEKYGKDFNDIRQDFLPWKSLTSIIEYYYMWKTTA belongs -0.135 ± 0.095.
To RDEMEEWSASEASLFEEALEKYCKDFNDIRQDFLPWKSLTSIIEYYYMWKTTD belongs -0.368 ± 0.1.
With RDEMEEWSASEASLFEEALEKYRKDFNDIRQDFLPWKSLTSIIEYYYMWKTTD, the abundance fitness was -0.844 ± 0.13.
To RDEMEEWSASEASLFEEALEKYKKDFNDIRQDFLPWKSLTSIIEYYYMWKTTD belongs -1.05 ± 0.35; to RDEMEEWSASEASLFEEALEKYPKDFNDIRQDFLPWKSLTSIIEYYYMWKTTD, -0.81 ± 0.16.
With RDEMEEWYASEASLFEEALEKYGKDFNDIRQDFLPWKSLTSIIEYYYMWKTTD, the abundance fitness was 0.086 ± 0.14.
To RDEMEEWSASEASLFEEALEKYGKDFNDIRQDFLPWKSLTSIIEYYLMWKTTD belongs -0.735 ± 0.21; to RDEMEEWSASEASLFEEALEKYGKDFNDIRQDFLPWKSLTSIIEYYCMWKTTD, -0.187 ± 0.24.
Regarding RDEMEEWSASEASLFEEALEKYGKDFLDIRQDFLPWKSLTSIIEYYYMWKTTD, the abundance fitness was -0.602 ± 0.22.
To RDEMEEWSASEASLFEEALEKYGKDFNDIRQDFLPWKSLTSIIEPYYMWKTTD belongs -0.726 ± 0.28; to RDEMEEWSASEASLFEEALEKYGKDFNDIRQDFLPWKSLTSIIESYYMWKTTD, -0.561 ± 0.35.
To RDEMEEWSASEASLFEEALEKYGKDFNDIRQDFLPWKSLTSIIIYYYMWKTTD belongs -0.779 ± 0.15; to RDEMEEWSASEASLFEEALEKYGKDFNDIRQDFLPWKSLTSIILYYYMWKTTD, -0.694 ± 0.092.
Take RDEMEEWSASEASLFEEALAKYGKDFNDIRQDFLPWKSLTSIIEYYYMWKTTD: the abundance fitness was found to be 0.007 ± 0.093.
To RDEMEEWSASEASLFEEALVKYGKDFNDIRQDFLPWKSLTSIIEYYYMWKTTD belongs -0.213 ± 0.13; to VDEMEEWSASEASLFEEALEKYGKDFNDIRQDFLPWKSLTSIIEYYYMWKTTD, 0.231 ± 0.4.

(Values after the Human Domainome abundance scans (Beltran et al. 2025).)
